Experimental findings from patent US20150010920 are described below.

Series [1] concerns EGFP-Thr1 (EGFP-E-III-F-N188R).
Series [2] has as its system EGFP-T/C1 (EGFP-E-III-F-172).
For series [3], the system named is EGFP-Thr1e (EGFP-E-III-F-FNPRGF).
Series [4] relates to EGFP-Thr1f (EGFP-E-III-F-FNPRSF).
In series [5] the test system is EGFP-cas3-1 (also called EGFP-EF172cas).

Regarding thrombin, in series [1], the Km (µM); 50 mM Tris, 150 mM NaCl, 2.5 mM CaCl2, pH 8.0 was 20.9 µM; the kcat (s^-1); 50 mM Tris, 150 mM NaCl, 2.5 mM CaCl2, pH 8.0 amounted to 0.057 s⁻¹; the kcat/Km (M^-1 s^-1); 50 mM Tris, 150 mM NaCl, 2.5 mM CaCl2, pH 8.0 is 2770 M⁻¹ s⁻¹. Moreover, the “optical change / cleavage (absorbance at 397 nm, SDS-PAGE, MALDI-MS)” value in series [2] is “this sensor was not cleaved by thrombin and protease type X”. In series [3], the Km (µM); 50 mM Tris, 150 mM NaCl, 2.5 mM CaCl2, pH 8.0 came out at 2.81 µM; the “fold change in Km compared to the thrombin sensor with cleavage linker (Gly-Arg-Gly)” value was “Km has great decrease with 10 folds”; the “fold change in kcat compared to the thrombin sensor with cleavage linker (Gly-Arg-Gly)” value is reported as “kcat, has significant increase with 5 folds”; the “fold change in kcat/Km compared to the thrombin sensor with cleavage linker (Gly-Arg-Gly)” value is on record as “substrate specificity (kcat/Km) of these four thrombin sensor variants is resulted in 50-fold increase”. In series [3], the kcat (s^-1); 50 mM Tris, 150 mM NaCl, 2.5 mM CaCl2, pH 8.0 is 0.29 s⁻¹ and the kcat/Km (M^-1 s^-1); 50 mM Tris, 150 mM NaCl, 2.5 mM CaCl2, pH 8.0 was found to be 105000 M⁻¹ s⁻¹. In series [4], the Km (µM); 50 mM Tris, 150 mM NaCl, 2.5 mM CaCl2, pH 8.0 amounted to 2.86 µM; the “fold change in Km compared to the thrombin sensor with cleavage linker (Gly-Arg-Gly)” value was “Km has great decrease with 10 folds”; the “fold change in kcat compared to the thrombin sensor with cleavage linker (Gly-Arg-Gly)” value was “kcat, has significant increase with 5 folds”; the “fold change in kcat/Km compared to the thrombin sensor with cleavage linker (Gly-Arg-Gly)” value was “substrate specificity (kcat/Km) of these four thrombin sensor variants is resulted in 50-fold increase”. Moreover, in series [4], the kcat (s^-1); 50 mM Tris, 150 mM NaCl, 2.5 mM CaCl2, pH 8.0 turned out to be 0.23 s⁻¹ and the kcat/Km (M^-1 s^-1); 50 mM Tris, 150 mM NaCl, 2.5 mM CaCl2, pH 8.0 came out at 80200 M⁻¹ s⁻¹.

Consider active caspase-3, for which, in series [5], the “cleavage; 50 mM HEPES buffer with 10% sucrose” value was “the cleavage effect was very weak and the cleavage reaction slow”.
